Source: patent EP4782837A1

Target: Cetux-probe (cetuximab conjugated with the C-probe)
Assay: cell-based or functional assay

Row | fold increase of Cetux-probe fluorescence on enzyme treatment (37°C, 1 hour) [fold] | Substance
1 | 13.5 | papain (from UniProt P00784 134-345) (enzyme)
2 | 24 | cathepsin B (enzyme)
